Source: IntAct's records for PubMed 30245403

Target: T1, prdx2_human PRDX2 (UniProt P32119)
T1 sequence: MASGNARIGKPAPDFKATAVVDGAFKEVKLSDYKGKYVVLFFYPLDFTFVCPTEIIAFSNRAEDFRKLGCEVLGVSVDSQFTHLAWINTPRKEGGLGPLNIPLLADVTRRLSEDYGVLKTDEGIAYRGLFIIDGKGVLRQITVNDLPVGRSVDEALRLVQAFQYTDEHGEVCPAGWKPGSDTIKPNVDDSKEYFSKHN

effect of a mutation on the interaction	Substance
increasing interaction strength	"DNA (cytosine-5)-methyltransferase 3A" (Homo sapiens) (from UniProt Q9Y6K1) R882H
with no effect	"DNA (cytosine-5)-methyltransferase 3A" (Homo sapiens) (from UniProt Q9Y6K1) R882C
